This passage reports Kd results from PMC13291817.

Assay [1] deals with RGH2-Exo70 domain (residues 1033-1637), purified from E. coli (barley (Hordeum vulgare)). Nature of the assay: ITC; MicroCal PEAQ-ITC; […]; 25 °C; 20 mM HEPES pH 7.5, 150 mM NaCl, 5% glycerol; […]. (In general: Isothermal titration calorimetry measures the heat released or taken up as one component is titrated into another.)
Assay [2] has as its target RGH2^+-Exo70 domain (residues 1033-1637), purified from E. coli (barley (Hordeum vulgare)). Described as above.

As for “AVR-Pii^Rb, purified from E. coli (natural protein)”, the Kd in assay [1] was 15 µM; in assay [2], 3.12 µM.

The term Kd denotes a measure of binding affinity in units of concentration. The low end stands for tighter binding, the high end for weaker binding.
